The supplement of paper PMC11865577

Legend:
Assay in all cases: pull-down binding Z-score (relative to library population); higher = stronger binding
[1] = test system: TO-N3-2 (biotin conjugate); conditions: RNA library: Library-2
In short: (§1)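 Biotin-conjugated small molecule (100 pmol) on streptavidin beads was incubated with 1 μg of heat-folded Cy5- or Cy3-end-labelled RNA library in phosphate/NaCl/KCl buffer at 25 °C for 60 min. Following three washes, RNA was eluted with hot SDS and hybridised at 55.5 °C for 20 h to a DNA barcode microarray. The binding value is a Z-score computed from the library mean and standard deviation, after subtraction of beads without compound and averaging of barcoded replicate probes with the highest and lowest excluded.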

[2] = test system: TO-3-N3-2 (biotin conjugate); conditions: RNA library: Library-2
In short: as §1

[3] = test system: G-clamp-N3 (biotin conjugate); conditions: RNA library: Library-1 (pre-miRNA loops + repeats)
In short: as §1

[4] = test system: TO-3-N3 (biotin conjugate); conditions: RNA library: Library-2
In short: as §1

TO-N3 (biotin conjugate) = conditions: RNA library: Library-2
In short: as §1

Row | Sequence | pull-down binding Z-score [1] | pull-down binding Z-score [2] | pull-down binding Z-score [3] | pull-down binding Z-score [4] | pull-down binding Z-score (TO-N3 (biotin conjugate))
1 | UUUGCCAUUAAAAGUAAUGGUAAA [hsa-mir-548x-2] | -1.58 | -0.616 | -0.261 | -0.753 | -1.29
2 | UUUGCCAUUACUUUCAGUAGCAAA [hsa-mir-548c] | -0.814 | -0.441 | -0.417 | -0.131 | -0.379
3 | UUUGCCAUUACUUUCAGUGGCAAA [hsa-mir-548aq] | -1.11 | -0.894 | 0.135 | -0.975 | -1.48
4 | UUUGCCAUUAUAAUGGCAAA [hsa-mir-548ae-1] | -1.71 | -0.855 | -0.11 | -0.806 | -1.37
5 | UUUGCCAUUGAAAGUAAUGGCAAA [hsa-mir-548d-2] | -1.04 | -0.422 | 0.739 | -0.691 | -1.12
6 | UUUGCCGUCGAAAAUAAUGGCAAA [hsa-mir-548am] | -0.502 | -0.146 | -0.204 | -0.422 | -0.71
7 | UUUGCCGUUAAAAGUAAUGGCA [hsa-mir-548a-2] | -0.106 | -0.17 | -1.31 | -0.228 | -0.368
8 | UUUGCCGUUGCUUUUAAUGGUAAA [hsa-mir-548as] | -1.31 | -0.381 | -0.134 | -0.291 | -0.571
9 | UUUGCCUAUAAAAGUAAUGGCAAA [hsa-mir-548an] | -0.888 | -0.19 | 0.207 | -0.247 | -0.512
10 | UUUGCCUCUCUCAGAAAAUAGAGUCAAA [hsa-mir-4694] | -0.759 | -0.0805 | 0.239 | 0.229 | 0.157
11 | UUUGCCUGUAAAAGUAAUGGCAAA [hsa-mir-548d-1] | -0.552 | -0.105 | -0.646 | -0.488 | -0.702
12 | UUUGCGUUACUUUCAAUCGUAAA [hsa-mir-548x] | -1.46 | -0.253 | -0.79 | -1.01 | -1.13
13 | UUUGCUACUGAAAGUAAUGGCAAA [hsa-mir-548z] | -0.632 | -0.468 | 0.365 | -0.614 | -0.792
14 | UUUGCUAUUACUUUUAAUGGUAAA [hsa-mir-548aj-2] | -1.19 | -0.502 | 1.61 | -0.666 | -0.932
15 | UUUGCUAUUUUUUUUUAAUGGCAAA [hsa-mir-548ac] | -1.46 | -0.0611 | 0.725 | -0.607 | -1.01
16 | UUUGCUGUUGAACGUAGUGGUAA [hsa-mir-548ar] | 0.387 | 0.0962 | -0.679 | 0.181 | 0.407
17 | UUUGGCUGCCAAAAGAAAUGGCCAAA [hsa-mir-548at] | -0.668 | -0.331 | -0.71 | -0.656 | -0.547
18 | UUUGGUAUUACUUUCAGUGGCAAA [hsa-mir-548j] | -0.485 | 0.0283 | 0.937 | -0.416 | -0.448
19 | UUUGUACGGCACUGUGGCCACGUCCAAA [hsa-mir-497] | 0.0542 | -0.306 | -0.884 | -0.121 | -0.0106

Row | Sequence | pull-down binding Z-score [1] | pull-down binding Z-score [2] | pull-down binding Z-score [3] | pull-down binding Z-score [4] | pull-down binding Z-score (TO-N3 (biotin conjugate))
20 | UUUGUAUUGUGGUUCAGUACCAUGCAAA [hsa-mir-6507] | -0.933 | -0.36 | -0.552 | -0.367 | -0.633
21 | UUUGUCAUUAAAGUAAUGCAAA [hsa-mir-548m] | -0.856 | -0.211 | -0.115 | 0.175 | 0.0311
22 | UUUGUCAUUACUUUAAUUACUUUACGUUUCAUUAAUGACAAA [hsa-mir-548h-4] | -1.46 | -0.563 | -0.754 | -1.23 | -1.43
23 | UUUGUCAUUUAAAAGUAAUGGCAAA [hsa-mir-548ae-2] | -0.902 | 0.00258 | 0.815 | 0.207 | -0.203
24 | UUUGUGGAUUUUGAAAAGGUGCAGG [hsa-mir-15a] | 0.28 | 0.66 | 1.81 | -0.119 | 0.277
25 | UUUGUGGGGCGAGGAGGGACCUGUACUAGCCAUGGUUCUGAUCACAUAUG [hsa-mir-6834] | 2.89 | 2.72 | 0.432 | 3.06 | 3.83
26 | UUUGUGUAAGGAAUUUUGUGGUCACAAA [hsa-mir-10a] | -0.825 | -0.175 | 1.29 | -1.06 | -1.25
27 | UUUGUUGAAAGAAUAAAUAAACCAACAAG [hsa-mir-1264] | -0.365 | 0.0773 | -0.724 | -0.424 | -0.367
28 | UUUUAAUUUUUUUAAAA [hsa-mir-3606] | -1.39 | -0.175 | -1.03 | 0.211 | -0.183
29 | UUUUAGAA [hsa-mir-4443] | -1.35 | -0.535 | -1.3 | -0.568 | -0.913
30 | UUUUAUCAUUACUUUUAAUGGCAAAA [hsa-mir-548f-2] | -0.404 | 0.834 | 0.854 | 1.12 | 0.761
31 | UUUUCAGUUCCUGAGAUC [hsa-mir-4287] | -0.441 | -0.202 | -1.15 | -0.0736 | -0.128
32 | UUUUCAUGACAACCCUAUAUGGGAAAAUGUUGUGAAAA [hsa-mir-3646] | -1.78 | -0.448 | -0.346 | -0.839 | -1.1
33 | UUUUCCCUUUCUCUUGCCCUGAAA [hsa-mir-4509-1_4509-3_4509-2] | -0.219 | -0.096 | -1 | -0.261 | -0.332
34 | UUUUCCUGAGAAUAAGAGAAGGAAGG [hsa-mir-4455] | 0.75 | -0.0611 | -0.563 | -0.477 | 0.0683
35 | UUUUCGCUUUAUAUGUGACGAAAC [hsa-mir-495] | -0.531 | 0.125 | 0.0902 | -0.605 | -0.787
36 | UUUUCUGGGA [hsa-mir-4456] | -0.251 | -0.103 | -0.606 | -0.426 | -0.484
37 | UUUUCUGUCCUGUCCACACAGAAAA [hsa-mir-1537] | -0.902 | -0.517 | -1 | -0.957 | -1.27
38 | UUUUCUUAAAUUGUAUAAAGAGAAAU [hsa-mir-944] | -0.622 | -0.156 | -0.343 | -0.406 | -0.741

Row | Sequence | pull-down binding Z-score [1] | pull-down binding Z-score [2] | pull-down binding Z-score [3] | pull-down binding Z-score [4] | pull-down binding Z-score (TO-N3 (biotin conjugate))
39 | UUUUGAAAGUAACUUGGCGAAA [hsa-mir-548ad] | -0.299 | -0.118 | 1.69 | -0.179 | -0.0602
40 | UUUUGACAUUACUUUCAAAGACAAAA [hsa-mir-548f-1] | -1.23 | -0.214 | -1.58 | -0.771 | -1.09
41 | UUUUGCAAUUUUUUAAUGACAAAA [hsa-mir-548t] | -0.704 | -0.334 | -0.195 | -0.494 | -0.585
42 | UUUUGCAGUUGAAAGUAAUGGCAAAG [hsa-mir-548ao] | 0.259 | 0.00731 | 2.64 | -0.235 | -0.0635
43 | UUUUGCAGUUUUUUUAAGUAAUUGCAAAA [hsa-mir-548f-3] | -0.904 | -0.385 | 0.0351 | -0.492 | -0.812
44 | UUUUGCAUUUAAAGUAAUGGCCAAA [hsa-mir-548ay] | -0.173 | -0.285 | 2.31 | -0.735 | -0.77
45 | UUUUGCCAUUAAAAGUAAUGACAAAA [hsa-mir-548f-4] | -1.66 | -0.56 | -0.841 | -0.924 | -1.47
46 | UUUUGCCAUUACUUUCAAUGGCAAAA [hsa-mir-548aa-2] | -1.08 | -0.23 | -0.284 | 0.127 | -0.176
47 | UUUUGCCAUUACUUUUACAGGCAAAA [hsa-mir-548aa-1] | -1.28 | -0.412 | -0.445 | -0.497 | -0.991
48 | UUUUGCUAUUACUUUUAAAGGCAAAA [hsa-mir-548e] | -0.684 | 0.21 | -0.666 | 0.431 | -0.0747
49 | UUUUGCUGUUACUUUUAAUGGCAAAA [hsa-mir-548az] | -1.3 | -0.34 | -0.982 | -0.418 | -0.752
50 | UUUUGCUUGUGUCUCUCCGCUCUGAGCAAUC [hsa-mir-96] | 0.411 | -0.0864 | -0.253 | 0.441 | 0.528
51 | UUUUGUCUGA [hsa-mir-553] | -0.491 | -0.242 | -1.4 | -0.414 | -0.549
52 | UUUUUCCAUUGUAAGUAAUGGGAAAA [hsa-mir-548f-5] | -1.67 | -0.567 | 0.457 | -0.644 | -0.991
53 | UUUUUCUUUACUUUUAAUGGCAAA [hsa-mir-548u] | -1.2 | -0.338 | 0.72 | -1.03 | -1.35
54 | UUUUUGCAUUACGUUCUAUGGCAAAA [hsa-mir-548g] | -0.0583 | -0.00229 | 1.18 | -0.297 | -0.182
55 | UUUUUGUUUUUGAGACAGAGU [hsa-mir-4472-2] | -0.803 | 0.0401 | -0.943 | 0.455 | 0.274
56 | UUUUUUUCCAAUGAAAAUAACGAAACCUGUUAUUUCCCAUUGAGGGGGAAAAA [hsa-mir-4484] | -0.641 | -0.221 | 0.398 | -1.12 | -1.15
57 | UUUUUUUCGCUUUAUUUGUGACGAAAC [hsa-mir-543] | -0.882 | -0.278 | -0.305 | -0.674 | -0.856
